Target: recombinant hCD25 (human IL-2Rα) (human) (UniProt P01589)
Chain of UniProt P01589 (P01589 22-240): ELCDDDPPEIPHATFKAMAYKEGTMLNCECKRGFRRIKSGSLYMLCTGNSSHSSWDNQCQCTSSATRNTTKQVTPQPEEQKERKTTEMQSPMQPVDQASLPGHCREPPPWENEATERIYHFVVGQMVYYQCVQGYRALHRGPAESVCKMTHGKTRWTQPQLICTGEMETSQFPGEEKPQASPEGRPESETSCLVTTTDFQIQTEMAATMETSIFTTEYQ

Chain of NARA1leukin (P60568 whole entry, looked up): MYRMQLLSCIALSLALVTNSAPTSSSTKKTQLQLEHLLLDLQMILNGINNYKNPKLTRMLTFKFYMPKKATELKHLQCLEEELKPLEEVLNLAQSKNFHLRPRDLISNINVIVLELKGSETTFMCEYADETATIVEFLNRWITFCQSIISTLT

fold decrease in pSTAT5 in human CD4+ CD25+ Treg cells (PBMCs, 15 min at 37 °C); stimulation by NARA1leukin compared to hIL-2/NARA1 complexes: 30 fold
Substance: NARA1leukin (from UniProt P60568 97-153; P60568 22-96)

Source: paper PMC7755894
